Measurements as given in PMC11665612.

Legend:
[1] = molecular target: heme-binding globin domain of human androglobin (Adgb), Cys132 mutated to Ser (human)
[2] = molecular target: FL-G41C CaM (calmodulin G41C labelled with fluorescein-5-maleimide at Cys41, N-lobe) (UniProt P0DP23); assay: fluorescence quenching on mixing

k1 (fast) of nitrite reduction, Adgb–CaM complex against Adgb alone [1] [fold] | kcat of nitrite reduction by the Adgb–CaM complex (nitrite 2.5–15 mM) [1] [s⁻¹] | decrease in fluorescence intensity at 531 nm [2] [%] | Substance
1.8 | 0.64 |  | calmodulin (CaM) (from UniProt P0DP23 1-149) (natural protein)
 |  | 35 | heme-binding globin domain of human androglobin (Adgb), Cys132 mutated to Ser (domain or fragment)
